Source: patent publication US20180155451A1 (published 2018)

T1: FcγRIIa R (FcγRIIa, allotype R, Arg at position 131), extracellular domain with C-terminal His tag (human, UniProt P12318 34-217)
T1 construct: extracellular domain; soluble receptor used as Biacore analyte; also called 2aR; FcgRIIa R
T1 sequence (looked up): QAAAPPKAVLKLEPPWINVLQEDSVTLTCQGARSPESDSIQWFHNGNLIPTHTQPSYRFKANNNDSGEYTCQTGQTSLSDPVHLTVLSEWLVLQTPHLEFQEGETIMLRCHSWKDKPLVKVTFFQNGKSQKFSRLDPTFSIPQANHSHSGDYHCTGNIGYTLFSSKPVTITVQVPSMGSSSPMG

T2: FcγRIIb, extracellular domain with C-terminal His tag (human, UniProt P31994 43-217)
T2 construct: extracellular domain; soluble receptor used as Biacore analyte; also called 2b; FcgRIIb
T2 sequence (looked up): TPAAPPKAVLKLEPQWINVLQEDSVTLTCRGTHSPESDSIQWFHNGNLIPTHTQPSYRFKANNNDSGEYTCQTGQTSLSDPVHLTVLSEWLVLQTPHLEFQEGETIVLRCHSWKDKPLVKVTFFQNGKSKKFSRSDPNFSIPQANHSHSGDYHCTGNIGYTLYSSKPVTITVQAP


Key:
[1] = target: T1, FcγRIIa R (FcγRIIa, allotype R, Arg at …); assay: Biacore SPR; He/Con_2aR divided by He/Con_2b (FcγRIIb)
Description: The heterodimerized antibodies He Abs in which one of the H chains was introduced with an alteration were assayed for their binding activities to each activating FcγR and inhibitory FcγR according to the method described in Example 4. […] The activating FcγRs in FIGS. 26, 27, 28, and 29 are FcγRIa, FcγRIIa (R), FcγRIIa (H), and FcγRIIIa, respectively.
Analysis of interaction between objective antibody and the FcγR was carried out using Biacore T100 (GE Healthcare). HBS-EP+ (GE Healthcare) was used as the running buffer, and the measurement temperature was set to 25° C. Chips produced by immobilizing the antigen peptide by the amine coupling method to a Series S Sencor Chip CM5 (GE Healthcare), or alternatively, chips produced by allowing preliminarily biotinylated antigen peptides to interact with and immobilize onto a Series S Sensor Chip SA (certified) (GE Healthcare) were used. Antibodies of interest were captured onto an antigen peptide-immobilized chip, and allowed to interact to each FcγR diluted with running buffer. To regenerate and repeatedly use the chip, the antibodies captured on the chip were washed off by reacting 10 mM glycine-HCl, pH 1.5.

[2] = target: T2, FcγRIIb, extracellular domain with …; assay: Biacore SPR; binding relative to GpH7-A5/GpH7-B3/GpL16-k0 (=100)
[3] = target: T1, FcγRIIa R (FcγRIIa, allotype R, Arg at …); assay: as above

| IIaR/IIb (He_2aR/2b) [1] | He/Con_2b (IIb binding) [2] | He/Con_2aR (IIaR binding) [3] | Binder |
| --- | --- | --- | --- |
| 0.61 | 192 % of control | 116 % of control | heterodimerized antibody GpH7-A5/GpH7-B3 variant S267_03V/GpL16-k0 (antibody, human IgG1, kappa, He Ab: anti-glypican-3 IgG1, alteration in one H chain only; also called He Ab) heavy 1: not shown heavy 2: not shown light: DIVMTQSPLSLPVTPGEPASISCQASESLVHSNRNTYLHWYLQKPGQSPQLLIYKVSNRFSGVPDRFSGSGSGTDFTLKISRVEAEDVGVYYCSQNTHVPPTFGQGTKVEIERTVAAPSVFIFPPSDEQLKSGTASVVCLLNNFYPREAKVQWKVDNALQSGNSQESVTEQDSKDSTYSLSSTLTLSKADYEKHKVYACEVTHQGLSSPVTKSFNRGEC |
| 0.46 | 379 % of control | 175 % of control | heterodimerized antibody GpH7-A5/GpH7-B3 variant S267_10E/GpL16-k0 (antibody, human IgG1, kappa, He Ab: anti-glypican-3 IgG1, alteration in one H chain only; also called He Ab) heavy 1: not shown heavy 2: not shown light: DIVMTQSPLSLPVTPGEPASISCQASESLVHSNRNTYLHWYLQKPGQSPQLLIYKVSNRFSGVPDRFSGSGSGTDFTLKISRVEAEDVGVYYCSQNTHVPPTFGQGTKVEIERTVAAPSVFIFPPSDEQLKSGTASVVCLLNNFYPREAKVQWKVDNALQSGNSQESVTEQDSKDSTYSLSSTLTLSKADYEKHKVYACEVTHQGLSSPVTKSFNRGEC |
| 0.78 | 104 % of control | 81.9 % of control | heterodimerized antibody GpH7-A5/GpH7-B3 variant S267_14T/GpL16-k0 (antibody, human IgG1, kappa, He Ab: anti-glypican-3 IgG1, alteration in one H chain only; also called He Ab) heavy 1: not shown heavy 2: not shown light: DIVMTQSPLSLPVTPGEPASISCQASESLVHSNRNTYLHWYLQKPGQSPQLLIYKVSNRFSGVPDRFSGSGSGTDFTLKISRVEAEDVGVYYCSQNTHVPPTFGQGTKVEIERTVAAPSVFIFPPSDEQLKSGTASVVCLLNNFYPREAKVQWKVDNALQSGNSQESVTEQDSKDSTYSLSSTLTLSKADYEKHKVYACEVTHQGLSSPVTKSFNRGEC |
| 0.77 | 57.6 % of control | 44.4 % of control | heterodimerized antibody GpH7-A5/GpH7-B3 variant V266_04F/GpL16-k0 (antibody, human IgG1, kappa, He Ab: anti-glypican-3 IgG1, alteration in one H chain only; also called He Ab) heavy 1: not shown heavy 2: not shown light: DIVMTQSPLSLPVTPGEPASISCQASESLVHSNRNTYLHWYLQKPGQSPQLLIYKVSNRFSGVPDRFSGSGSGTDFTLKISRVEAEDVGVYYCSQNTHVPPTFGQGTKVEIERTVAAPSVFIFPPSDEQLKSGTASVVCLLNNFYPREAKVQWKVDNALQSGNSQESVTEQDSKDSTYSLSSTLTLSKADYEKHKVYACEVTHQGLSSPVTKSFNRGEC |
| 0.6 | 251 % of control | 150 % of control | heterodimerized antibody GpH7-A5/GpH7-B3 variant V266_06M/GpL16-k0 (antibody, human IgG1, kappa, He Ab: anti-glypican-3 IgG1, alteration in one H chain only; also called He Ab) heavy 1: not shown heavy 2: not shown light: DIVMTQSPLSLPVTPGEPASISCQASESLVHSNRNTYLHWYLQKPGQSPQLLIYKVSNRFSGVPDRFSGSGSGTDFTLKISRVEAEDVGVYYCSQNTHVPPTFGQGTKVEIERTVAAPSVFIFPPSDEQLKSGTASVVCLLNNFYPREAKVQWKVDNALQSGNSQESVTEQDSKDSTYSLSSTLTLSKADYEKHKVYACEVTHQGLSSPVTKSFNRGEC |
| 0.79 | 152 % of control | 120 % of control | heterodimerized antibody GpH7-A5/GpH7-B3 variant V266_07I/GpL16-k0 (antibody, human IgG1, kappa, He Ab: anti-glypican-3 IgG1, alteration in one H chain only; also called He Ab) heavy 1: not shown heavy 2: not shown light: DIVMTQSPLSLPVTPGEPASISCQASESLVHSNRNTYLHWYLQKPGQSPQLLIYKVSNRFSGVPDRFSGSGSGTDFTLKISRVEAEDVGVYYCSQNTHVPPTFGQGTKVEIERTVAAPSVFIFPPSDEQLKSGTASVVCLLNNFYPREAKVQWKVDNALQSGNSQESVTEQDSKDSTYSLSSTLTLSKADYEKHKVYACEVTHQGLSSPVTKSFNRGEC |
| 0.79 | 48 % of control | 37.8 % of control | heterodimerized antibody GpH7-A5/GpH7-B3 variant S267_04F/GpL16-k0 (antibody, human IgG1, kappa, He Ab: anti-glypican-3 IgG1, alteration in one H chain only; also called He Ab) heavy 1: not shown heavy 2: not shown light: DIVMTQSPLSLPVTPGEPASISCQASESLVHSNRNTYLHWYLQKPGQSPQLLIYKVSNRFSGVPDRFSGSGSGTDFTLKISRVEAEDVGVYYCSQNTHVPPTFGQGTKVEIERTVAAPSVFIFPPSDEQLKSGTASVVCLLNNFYPREAKVQWKVDNALQSGNSQESVTEQDSKDSTYSLSSTLTLSKADYEKHKVYACEVTHQGLSSPVTKSFNRGEC |
| 0.58 | 210 % of control | 122 % of control | heterodimerized antibody GpH7-A5/GpH7-B3 variant S267_06M/GpL16-k0 (antibody, human IgG1, kappa, He Ab: anti-glypican-3 IgG1, alteration in one H chain only; also called He Ab) heavy 1: not shown heavy 2: not shown light: DIVMTQSPLSLPVTPGEPASISCQASESLVHSNRNTYLHWYLQKPGQSPQLLIYKVSNRFSGVPDRFSGSGSGTDFTLKISRVEAEDVGVYYCSQNTHVPPTFGQGTKVEIERTVAAPSVFIFPPSDEQLKSGTASVVCLLNNFYPREAKVQWKVDNALQSGNSQESVTEQDSKDSTYSLSSTLTLSKADYEKHKVYACEVTHQGLSSPVTKSFNRGEC |
| 0.77 | 65.9 % of control | 50.6 % of control | heterodimerized antibody GpH7-A5/GpH7-B3 variant S267_16H/GpL16-k0 (antibody, human IgG1, kappa, He Ab: anti-glypican-3 IgG1, alteration in one H chain only; also called He Ab) heavy 1: not shown heavy 2: not shown light: DIVMTQSPLSLPVTPGEPASISCQASESLVHSNRNTYLHWYLQKPGQSPQLLIYKVSNRFSGVPDRFSGSGSGTDFTLKISRVEAEDVGVYYCSQNTHVPPTFGQGTKVEIERTVAAPSVFIFPPSDEQLKSGTASVVCLLNNFYPREAKVQWKVDNALQSGNSQESVTEQDSKDSTYSLSSTLTLSKADYEKHKVYACEVTHQGLSSPVTKSFNRGEC |
| 0.56 | 310 % of control | 173 % of control | heterodimerized antibody GpH7-A5/GpH7-B3 variant S267_09D/GpL16-k0 (antibody, human IgG1, kappa, He Ab: anti-glypican-3 IgG1, alteration in one H chain only; also called He Ab) heavy 1: not shown heavy 2: not shown light: DIVMTQSPLSLPVTPGEPASISCQASESLVHSNRNTYLHWYLQKPGQSPQLLIYKVSNRFSGVPDRFSGSGSGTDFTLKISRVEAEDVGVYYCSQNTHVPPTFGQGTKVEIERTVAAPSVFIFPPSDEQLKSGTASVVCLLNNFYPREAKVQWKVDNALQSGNSQESVTEQDSKDSTYSLSSTLTLSKADYEKHKVYACEVTHQGLSSPVTKSFNRGEC |
| 0.6 | 236 % of control | 142 % of control | heterodimerized antibody GpH7-A5/GpH7-B3 variant V266_08L/GpL16-k0 (antibody, human IgG1, kappa, He Ab: anti-glypican-3 IgG1, alteration in one H chain only; also called He Ab) heavy 1: not shown heavy 2: not shown light: DIVMTQSPLSLPVTPGEPASISCQASESLVHSNRNTYLHWYLQKPGQSPQLLIYKVSNRFSGVPDRFSGSGSGTDFTLKISRVEAEDVGVYYCSQNTHVPPTFGQGTKVEIERTVAAPSVFIFPPSDEQLKSGTASVVCLLNNFYPREAKVQWKVDNALQSGNSQESVTEQDSKDSTYSLSSTLTLSKADYEKHKVYACEVTHQGLSSPVTKSFNRGEC |
| 0.8 | 134 % of control | 107 % of control | heterodimerized antibody GpH7-A5/GpH7-B3 variant Y300_10E/GpL16-k0 (antibody, human IgG1, kappa, He Ab: anti-glypican-3 IgG1, alteration in one H chain only; also called He Ab) heavy 1: not shown heavy 2: not shown light: DIVMTQSPLSLPVTPGEPASISCQASESLVHSNRNTYLHWYLQKPGQSPQLLIYKVSNRFSGVPDRFSGSGSGTDFTLKISRVEAEDVGVYYCSQNTHVPPTFGQGTKVEIERTVAAPSVFIFPPSDEQLKSGTASVVCLLNNFYPREAKVQWKVDNALQSGNSQESVTEQDSKDSTYSLSSTLTLSKADYEKHKVYACEVTHQGLSSPVTKSFNRGEC |
| 0.58 | 192 % of control | 111 % of control | heterodimerized antibody GpH7-A5/GpH7-B3 variant S267_07I/GpL16-k0 (antibody, human IgG1, kappa, He Ab: anti-glypican-3 IgG1, alteration in one H chain only; also called He Ab) heavy 1: not shown heavy 2: not shown light: DIVMTQSPLSLPVTPGEPASISCQASESLVHSNRNTYLHWYLQKPGQSPQLLIYKVSNRFSGVPDRFSGSGSGTDFTLKISRVEAEDVGVYYCSQNTHVPPTFGQGTKVEIERTVAAPSVFIFPPSDEQLKSGTASVVCLLNNFYPREAKVQWKVDNALQSGNSQESVTEQDSKDSTYSLSSTLTLSKADYEKHKVYACEVTHQGLSSPVTKSFNRGEC |
| 0.62 | 218 % of control | 135 % of control | heterodimerized antibody GpH7-A5/GpH7-B3 variant S267_19Q/GpL16-k0 (antibody, human IgG1, kappa, He Ab: anti-glypican-3 IgG1, alteration in one H chain only; also called He Ab) heavy 1: not shown heavy 2: not shown light: DIVMTQSPLSLPVTPGEPASISCQASESLVHSNRNTYLHWYLQKPGQSPQLLIYKVSNRFSGVPDRFSGSGSGTDFTLKISRVEAEDVGVYYCSQNTHVPPTFGQGTKVEIERTVAAPSVFIFPPSDEQLKSGTASVVCLLNNFYPREAKVQWKVDNALQSGNSQESVTEQDSKDSTYSLSSTLTLSKADYEKHKVYACEVTHQGLSSPVTKSFNRGEC |
